Laboratory results reported in patent US20200181274A1.

Molecular target: CD123 (interleukin-3 receptor alpha) on CD123-positive human AML cells (KG-1a, Kasumi-3, AML patient blasts) (human) (UniProt P26951)
Assay: cell-based or functional assay

Chain of UniProt P26951 (P26951 19-378): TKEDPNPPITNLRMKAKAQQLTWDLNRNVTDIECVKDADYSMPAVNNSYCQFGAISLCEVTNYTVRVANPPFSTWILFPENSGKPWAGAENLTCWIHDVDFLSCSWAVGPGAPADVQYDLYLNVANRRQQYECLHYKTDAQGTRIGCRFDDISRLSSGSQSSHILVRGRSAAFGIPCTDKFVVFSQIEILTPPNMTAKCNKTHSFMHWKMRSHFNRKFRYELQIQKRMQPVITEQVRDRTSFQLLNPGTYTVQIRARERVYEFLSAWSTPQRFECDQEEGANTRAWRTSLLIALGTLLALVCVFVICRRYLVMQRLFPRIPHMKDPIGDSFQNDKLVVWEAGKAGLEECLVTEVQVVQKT

Substance: XmAb14045 bispecific anti-CD123 x anti-CD3 Fab-scFv-Fc antibody (bispecific antibody)
- T cell-dependent cytotoxicity (RTCC) against CD123+ KG-1a cells with human PBMC as effectors, EC50: 0.28 ng/mL
- T cell-dependent cytotoxicity (RTCC) against CD123+ Kasumi-3 cells with human PBMC as effectors, EC50: 0.01 ng/mL
- apoptosis (annexin-V positivity) of CD123-expressing KG-1a cells with AML subject-derived PBMC, 48 hours: 50%
- depletion of putative blast cell population in PBMC of 6 AML subjects, 48 hours: 20 to 90%
- reduction of putative leukemic blast number in AML PBMC, 9 or 90 ng/mL, 48 hours: 80%
